Positions count from the first letter of the chain named.
Experiments:
[1] = target: T1, AimR D360A (SPbeta) (Bacillus subtilis phage SPbeta (cloned …, UniProt O31927 1-386, D360A)); assay: EMSA; apo; WT probe assumed; EMSA: 50 mM HEPES pH 7.5, 5 mM MgCl2, 75 mM NaCl, 0.5 mM EDTA; 0.4 uM DNA, 4 uM AimR; 10 min at room temperature; 8% PAGE in TBE at 4 C or agarose in TAE at room temperature; conditions: protein: recombinant; tags: N-terminal 6xHis-TEV, cleaved (as WT); chain copies: 2
T1 sequence: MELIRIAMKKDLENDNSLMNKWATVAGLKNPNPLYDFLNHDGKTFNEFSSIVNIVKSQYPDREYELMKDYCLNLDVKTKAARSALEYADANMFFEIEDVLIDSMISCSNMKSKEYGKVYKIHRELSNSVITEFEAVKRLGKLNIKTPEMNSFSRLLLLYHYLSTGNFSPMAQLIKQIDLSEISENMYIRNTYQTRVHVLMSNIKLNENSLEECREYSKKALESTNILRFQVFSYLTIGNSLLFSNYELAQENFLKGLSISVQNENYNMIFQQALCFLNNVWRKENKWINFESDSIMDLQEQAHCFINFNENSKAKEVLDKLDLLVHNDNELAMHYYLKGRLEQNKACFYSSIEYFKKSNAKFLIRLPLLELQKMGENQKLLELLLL

[2] = target: T2, AimR N202A (SPbeta) (Bacillus subtilis phage SPbeta (cloned …, UniProt O31927 1-386, N202A)); assay: as above; conditions: protein: recombinant; tags: N-terminal 6xHis-TEV, cleaved (as WT); chain copies: 2
T2 sequence: T1 sequence with N202A, A360D

B1: SPbeta operator WT 45 bp (dsDNA)
DNA 1: GTTGATCACTAGATGTTATTAAAACCTAATATTTAAGTGATGGCC
DNA 2: GGCCATCACTTAAATATTAGGTTTTAATAACATCTAGTGATCAAC
- binding result [1]: no binding
- binding result [2]: binds

Reference: publication PMC6458997
